Test results reported in publication PMC5531834.

Legend:
[1] = system: 8N-Gag (Δp6) (HIV-1); assay: FCS Cy5 quenching; conditions: 20 mM Tris-HCl pH 7.5, 0.2 M NaCl (varied in salt titrations), 5 mM MgCl2, 1 uM ZnCl2, 0.1 mM PMSF, 1 mM BME, 0.05% Tween 20; 15 nM RNA; overnight 4 C, FCS at …
[2] = system: WT-Gag (HIV-1 Δp6 Gag) (HIV-1); assay: FCS Cy5 quenching; conditions: 20 mM Tris-HCl pH 7.5, 0.2 M NaCl (varied in salt titrations), 5 mM MgCl2, 1 uM ZnCl2, 0.1 mM PMSF, 1 mM BME, 0.05% Tween 20; 15 nM RNA; overnight 4 C, FCS at …
[3] = system: 8N-Gag (Δp6) (HIV-1); assay: FCS Cy5 quenching; conditions: 20 mM Tris-HCl pH 7.5, 0.2 M NaCl (varied in salt titrations), 5 mM MgCl2, 1 uM ZnCl2, 0.1 mM PMSF, 1 mM BME, 0.05% Tween 20; 15 nM RNA; overnight 4 C, FCS at …; remark: listed apart in the source
[4] = system: 8N-Gag (Δp6) (HIV-1); assay: FCS Cy5 quenching, competition; conditions: 20 mM Tris-HCl pH 7.5, 0.2 M NaCl (varied in salt titrations), 5 mM MgCl2, 1 uM ZnCl2, 0.1 mM PMSF, 1 mM BME, 0.05% Tween 20; 15 nM RNA; overnight 4 C, FCS at …
[5] = system: WT-Gag (HIV-1 Δp6 Gag) (HIV-1); assay: FCS Cy5 quenching, competition; conditions: 20 mM Tris-HCl pH 7.5, 0.2 M NaCl (varied in salt titrations), 5 mM MgCl2, 1 uM ZnCl2, 0.1 mM PMSF, 1 mM BME, 0.05% Tween 20; 15 nM RNA; overnight 4 C, FCS at …
[6] = system: WT-Gag (HIV-1 Δp6 Gag) (HIV-1); assay: FCS Cy5 quenching; conditions: 20 mM Tris-HCl pH 7.5, 0.2 M NaCl (varied in salt titrations), 5 mM MgCl2, 1 uM ZnCl2, 0.1 mM PMSF, 1 mM BME, 0.05% Tween 20; 15 nM RNA; overnight 4 C, FCS at …; remark: listed apart in the source
[7] = target: Gag (Human immunodeficiency virus 1) (UniProt O93182); conditions: cited from earlier work

Gag, sequence (O93182 2-500): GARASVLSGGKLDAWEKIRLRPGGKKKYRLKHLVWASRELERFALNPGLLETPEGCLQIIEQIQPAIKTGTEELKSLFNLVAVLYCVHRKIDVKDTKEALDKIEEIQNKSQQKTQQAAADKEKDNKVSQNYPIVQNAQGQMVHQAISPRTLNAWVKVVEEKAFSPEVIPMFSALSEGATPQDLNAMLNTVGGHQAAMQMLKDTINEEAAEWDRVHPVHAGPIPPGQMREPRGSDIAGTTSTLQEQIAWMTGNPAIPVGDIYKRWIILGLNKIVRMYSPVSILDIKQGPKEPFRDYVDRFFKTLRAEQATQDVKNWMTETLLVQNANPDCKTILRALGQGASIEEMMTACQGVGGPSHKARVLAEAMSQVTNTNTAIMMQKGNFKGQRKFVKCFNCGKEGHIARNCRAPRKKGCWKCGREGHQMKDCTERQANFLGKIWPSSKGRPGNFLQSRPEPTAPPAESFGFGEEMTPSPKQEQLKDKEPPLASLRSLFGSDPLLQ

| Substance | Kd [1] [nM] | Kd [2] [nM] | Kd [3] [nM] | Kd [4] [nM] | Kd [5] [nM] | Kd [6] [nM] | Kd [7] [nM] |
| --- | --- | --- | --- | --- | --- | --- | --- |
| HIV Ψ2 (dimeric HIV-1 Ψ RNA) | 43.2 | 20.3 | > 1000 | 54.7 | 37 | – | – |
| MoMLV Ψ RNA | 59.8 | 25.9 | – | 59 | 119 | – | – |
| HIV Ψ1 (monomeric HIV-1 Ψ RNA) | 60 | 21.4 | – | 60 | 53.3 | 26 | – |
| Gag (from UniProt O93182) | – | – | – | – | – | – | 10000 |
| GRPE RNA | 145 | 44.2 | > 1000 | 154 | 315 | – | – |
